Experimental data as given in publication PMC4433160.

T1: human beta defensin 3 (HBD3) (human, UniProt P81534 23-67)
T1 chain: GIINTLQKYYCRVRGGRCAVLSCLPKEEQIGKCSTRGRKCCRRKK

T2: human beta defensin 2 (HBD2) (human, UniProt O15263 24-64)
T2 chain: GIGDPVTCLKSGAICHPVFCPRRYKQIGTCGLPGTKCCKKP


Tests used:
[1] = target: T1, human beta defensin 3 (HBD3); experiment: aggregate formation
[2] = target: T2, human beta defensin 2 (HBD2); experiment: microscopy of complex

Binder | binding result [1] | binding result [2]
ATCGACTCTCGAGCGTTCTC (ssDNA, phosphorothioate (underlining lost in text)) [CpG ODN K3] | binds | –
GGTGCATCGATGCAGGGGGG (ssDNA, phosphorothioate at some nucleotides (underlining lost in text)) [FITC-CpG ODN D35] | – | binds
